Measured values as given in patent US20230134571A1 (INTERNATIONAL AIDS VACCINE INITIATIVE, published 2023).
Changes are numbered by the printed parent chain.

B1: ePGDM13 (antibody, V domains shown)
VH: QAQLVQSGPEVRKPGTSVKVSCKNPGNTLTTYDLHWVRQVPGQGLQWMGWISHEGDKKVIVERFKAKVTIDWDRSTNTAYLQLSGLTSEDTAVYYCAKGSKHRLRDYALYDEDGALNWAVDVDYLANLEFWGQGTAVTVSS
VL: DIVLTQSPLSLSVTPGESASISCKSSHSLQHGDRNNYLAWYVQKPGRSPQLLLDLASERASGVPDRFSGSGSEKDFTLKISRVETEDVGTYYCMQGRESPWTFGQGTKVDIK
B2: ePGDM9 (antibody, V domains shown)
VH: B1 VH
VL: B1 VL with H27Q, Q30I, L53I, E73R
B3: PGDM1400 (antibody, V domains shown)
VH: B1 VH with A2V, Q3H, V5T, N24A, T30K, Q39S, E89G, E112D, A126S
VL: B1 VL with I2F, L9H, Q30I, L53I, D54Y, E58S, E73D
B4: ePGDM5 (antibody, V domains shown)
VH: B1 VH
VL: B1 VL with I2F, S26D, L53I, E73R, S81D, T85A
B5: ePGDM9 (antibody, V domains shown)
VH: B1 VH
VL: B1 VL with H27Q, Q30I, L53I, E73R

molecular target: HIV Env of isolate CNE19 (clade BC) (HIV); experiment: cell-based or functional assay

Binder | IC50 (µg/ml) with constrains [µg/mL]
B1 | 0.003
B2 | 0.003
B3 | 0.005
B4 | 0.003

molecular target: HIV Env of isolate ZM197M.PB7 (clade C) (HIV); experiment: cell-based or functional assay

Binder | IC50 (µg/ml) with constrains [µg/mL]
B1 | 0.06
B2 | 0.023
B3 | 0.071
B4 | 0.035

molecular target: HIV Env of isolate Q461.e2 (clade A) (HIV); experiment: cell-based or functional assay

Binder | IC50 (µg/ml) with constrains [µg/mL] | IC80 (µg/ml) with constrains [µg/mL]
B1 | 0.132 | 0.528
B2 | 0.06 | 0.24
B3 | 0.143 | 0.572
B4 | 0.104 | 0.415

molecular target: HIV Env of isolate BJOX025000.01.1 (clade AE) (HIV); experiment: cell-based or functional assay

Binder | IC50 (µg/ml) with constrains [µg/mL] | IC80 (µg/ml) with constrains [µg/mL]
B1 | 0.018 | 0.071
B2 | 0.018 | 0.072
B3 | 0.055 | 0.22
B4 | 0.018 | 0.072

molecular target: HIV Env, isolate BF1266.431a (HIV); experiment: cell-based or functional assay

Binder | IC80 (µg/ml) with constrains [µg/mL]
B5 | 0.008

molecular target: HIV Env of isolate 6480.v4.c25 (clade CD) (HIV); experiment: cell-based or functional assay

Binder | IC50 (µg/ml) with constrains [µg/mL]
B1 | > 100
B2 | > 100
B3 | > 100
B4 | > 100

molecular target: HIV Env of isolate A07412M1.vrc12 (clade D) (HIV); experiment: cell-based or functional assay

Binder | IC50 (µg/ml) with constrains [µg/mL]
B1 | 0.029
B2 | 0.026
B3 | 0.029
B4 | 0.009

molecular target: HIV Env, isolate CNE53 (HIV); experiment: cell-based or functional assay

Binder | IC80 (µg/ml) with constrains [µg/mL]
B5 | 0.029

molecular target: HIV Env of isolate 0260.v5.c36 (clade A) (HIV); experiment: cell-based or functional assay

Binder | IC50 (µg/ml) with constrains [µg/mL] | IC80 (µg/ml) with constrains [µg/mL]
B1 | 0.025 | 0.098
B2 | 0.018 | 0.073
B3 | 0.035 | 0.14
B4 | 0.021 | 0.084

molecular target: HIV Env of isolate 6540.v4.c1 (clade AC) (HIV); experiment: cell-based or functional assay

Binder | IC50 (µg/ml) with constrains [µg/mL] | IC80 (µg/ml) with constrains [µg/mL]
B1 | 0.015 | 0.06
B2 | 0.008 | 0.031
B3 | 0.007 | 0.026
B4 | 0.012 | 0.05

molecular target: HIV Env of isolate 6545.v4.c1 (clade AC) (HIV); experiment: cell-based or functional assay

Binder | IC50 (µg/ml) with constrains [µg/mL] | IC80 (µg/ml) with constrains [µg/mL]
B1 | 0.076 | 0.305
B2 | 0.041 | 0.164
B3 | 0.148 | 0.594
B4 | 0.043 | 0.17

molecular target: HIV Env, isolate 62357_14_D3_4589 (HIV); experiment: cell-based or functional assay

Binder | IC80 (µg/ml) with constrains [µg/mL]
B5 | 38

molecular target: HIV Env of isolate P1981_C5_3 (clade G) (HIV); experiment: cell-based or functional assay

Binder | IC50 (µg/ml) with constrains [µg/mL]
B1 | 0.319
B2 | 0.146
B3 | 18.9
B4 | 0.295

molecular target: HIV Env of isolate 3016.v5.c45 (clade D) (HIV); experiment: cell-based or functional assay

Binder | IC50 (µg/ml) with constrains [µg/mL]
B1 | > 100
B2 | > 100
B3 | > 100
B4 | > 100

molecular target: HIV Env, isolate CNE52 (HIV); experiment: cell-based or functional assay

Binder | IC80 (µg/ml) with constrains [µg/mL]
B5 | 7.39

molecular target: HIV Env of isolate Ce703010054_2A2 (clade C) (HIV); experiment: cell-based or functional assay

Binder | IC50 (µg/ml) with constrains [µg/mL]
B1 | 0.008
B2 | 0.008
B3 | 0.014
B4 | 0.008

molecular target: HIV Env of isolate 6041.v3.c23 (clade AC) (HIV); experiment: cell-based or functional assay

Binder | IC50 (µg/ml) with constrains [µg/mL] | IC80 (µg/ml) with constrains [µg/mL]
B1 | 0.007 | 0.029
B2 | 0.002 | 0.007
B3 | 0.016 | 0.064
B4 | 0.005 | 0.021

molecular target: HIV Env of isolate CNE17 (clade BC) (HIV); experiment: cell-based or functional assay

Binder | IC50 (µg/ml) with constrains [µg/mL]
B1 | 0.008
B2 | 0.003
B3 | 0.005
B4 | 0.007

molecular target: HIV Env of isolate 191955_A11 (clade A) (HIV); experiment: cell-based or functional assay

Binder | IC50 (µg/ml) with constrains [µg/mL] | IC80 (µg/ml) with constrains [µg/mL]
B1 | 0.008 | 0.033
B2 | 0.007 | 0.029
B3 | 0.013 | 0.05
B4 | 0.021 | 0.083

molecular target: HIV Env, isolate ZM197M.PB7 (HIV); experiment: cell-based or functional assay

Binder | IC80 (µg/ml) with constrains [µg/mL]
B5 | 0.092

molecular target: HIV Env, isolate REJO4541.67 (HIV); experiment: cell-based or functional assay

Binder | IC80 (µg/ml) with constrains [µg/mL]
B5 | 0.003

molecular target: HIV Env, isolate X1632_S2_B10 (HIV); experiment: cell-based or functional assay

Binder | IC80 (µg/ml) with constrains [µg/mL]
B5 | 0.01

molecular target: HIV Env of isolate 6244_13_B5_4576 (clade B) (HIV); experiment: cell-based or functional assay

Binder | IC50 (µg/ml) with constrains [µg/mL]
B1 | 30.8
B2 | 12.6
B3 | > 100
B4 | 18.9

molecular target: HIV Env of isolate 62357_14_D3_4589 (clade B) (HIV); experiment: cell-based or functional assay

Binder | IC50 (µg/ml) with constrains [µg/mL]
B1 | 17.4
B2 | 9.51
B3 | > 100
B4 | 9.98

molecular target: HIV Env, isolate P0402_C2_11 (HIV); experiment: cell-based or functional assay

Binder | IC80 (µg/ml) with constrains [µg/mL]
B5 | 0.003

molecular target: HIV Env of isolate 6952.v1.c20 (clade CD) (HIV); experiment: cell-based or functional assay

Binder | IC50 (µg/ml) with constrains [µg/mL]
B1 | 0.079
B2 | 0.052
B3 | 1.76
B4 | 0.033

molecular target: HIV Env, isolate Du422.1 (HIV); experiment: cell-based or functional assay

Binder | IC80 (µg/ml) with constrains [µg/mL]
B5 | 53.2

molecular target: HIV Env of isolate 620345.c01 (clade AE) (HIV); experiment: cell-based or functional assay

Binder | IC50 (µg/ml) with constrains [µg/mL] | IC80 (µg/ml) with constrains [µg/mL]
B1 | > 100 | > 100
B2 | > 100 | > 100
B3 | > 100 | > 100
B4 | > 100 | > 100

molecular target: HIV Env of isolate CNE58 (clade BC) (HIV); experiment: cell-based or functional assay

Binder | IC50 (µg/ml) with constrains [µg/mL]
B1 | 0.003
B2 | 0.002
B3 | 0.003
B4 | 0.004

molecular target: HIV Env of isolate HIV-16055-2.3 (clade C) (HIV); experiment: cell-based or functional assay

Binder | IC50 (µg/ml) with constrains [µg/mL]
B1 | 0.003
B2 | 0.001
B3 | 0.003
B4 | 0.002

molecular target: HIV Env, isolate CAP45.2.00.G3 (HIV); experiment: cell-based or functional assay

Binder | IC80 (µg/ml) with constrains [µg/mL]
B5 | 0.005

molecular target: HIV Env of isolate PVO.4 (clade B) (HIV); experiment: cell-based or functional assay

Binder | IC50 (µg/ml) with constrains [µg/mL]
B1 | 2.95
B2 | 1.93
B3 | 3.41
B4 | 1.39

molecular target: HIV Env of isolate ZM249M.PL1 (clade C) (HIV); experiment: cell-based or functional assay

Binder | IC50 (µg/ml) with constrains [µg/mL]
B1 | 0.014
B2 | 0.002
B3 | 0.025
B4 | 0.035

molecular target: HIV Env of isolate SC422661.8 (clade B) (HIV); experiment: cell-based or functional assay

Binder | IC50 (µg/ml) with constrains [µg/mL]
B1 | 1.56
B2 | 1.33
B3 | 15.7
B4 | 1.33

molecular target: HIV Env of isolate T211-9 (clade AG) (HIV); experiment: cell-based or functional assay

Binder | IC50 (µg/ml) with constrains [µg/mL] | IC80 (µg/ml) with constrains [µg/mL]
B1 | 0.028 | 0.113
B2 | 0.02 | 0.081
B3 | 0.058 | 0.234
B4 | 0.025 | 0.099

molecular target: HIV Env of isolate TRJO4551.58 (clade B) (HIV); experiment: cell-based or functional assay

Binder | IC50 (µg/ml) with constrains [µg/mL]
B1 | > 100
B2 | > 100
B3 | > 100
B4 | > 100

molecular target: HIV Env of isolate QH0692.42 (clade B) (HIV); experiment: cell-based or functional assay

Binder | IC50 (µg/ml) with constrains [µg/mL]
B1 | > 100
B2 | > 100
B3 | > 100
B4 | > 100

molecular target: HIV Env, isolate CNE21 (HIV); experiment: cell-based or functional assay

Binder | IC80 (µg/ml) with constrains [µg/mL]
B5 | 0.007

molecular target: HIV Env, isolate 6240_08_TA5_4622 (HIV); experiment: cell-based or functional assay

Binder | IC80 (µg/ml) with constrains [µg/mL]
B5 | 6.6

molecular target: HIV Env, isolate T278-50 (HIV); experiment: cell-based or functional assay

Binder | IC80 (µg/ml) with constrains [µg/mL]
B5 | 2.02

molecular target: HIV Env, isolate WEAU_d15_410_5017 (HIV); experiment: cell-based or functional assay

Binder | IC80 (µg/ml) with constrains [µg/mL]
B5 | 0.009
